In publication PMC11310338:

Biological target: phosphorylated CTD peptide (pS2pS5) of RNAP2 labeled with an NH2 terminal FITC group
Test: fluorescence polarisation

| Binder | Kd |
| --- | --- |
| Human SCAF4-CID domain fragment comprising residues 1-139 (domain or fragment) MDAVNAFNQELFSLMDMKPPISRAKMILITKAAIKAIKLYKHVVQIVEKFIKKCKPEYKVPGLYVIDSIVRQSRHQFGTDKDVFGPRFSKNITATFQYLYLCPSEDKSKIVRVLNLWQKNGVFKIEIIQPLLDMAAGTS | 366 nM |
| SCAF8-CID domain fragment comprising residues 1-139 (domain or fragment) MEAVKTFNSELYSLNDYKPPISKAKMTQITKAAIKAIKFYKHVVQSVEKFIQKCKPEYKVPGLYVIDSIVRQSRHQFGQEKDVFAPRFSNNIISTFQNLYRCPGDDKSKIVRVLNLWQKNNVFKSEIIQPLLDMAAGIP | 622 nM |
